In patent US20190177366:

Tests used:
Compound 118 = tested on: T1, Compound 118
T1 sequence: WNLVXIGLTR

Compound 26 = tested on: T2, Compound 26
T2 sequence: SGCFIPWNLQRIGLLC

Pep2-8 = tested on: T3, Pep2-8
T3 sequence: TVFTSWEEYLDWV

Pep2-8-ctrl = tested on: T4, Pep2-8-ctrl
T4 sequence: TVATSAEEYLLWV

Compound 29 = tested on: T5, Compound 29
T5 sequence: SGCFIPWNLQRIGLLC

PCSK9-R167A:R215A:R218A was tested, and the “FXIa cleavage of the P′ helix (immunoblot)” value (“FXIa cleavage of the P′ helix” for short) (Compound 118) was “resulted in a higher degree of P′ helix cleavage by FXIa as compared to the peptide Compound 112”, the “FXIa cleavage of the P′ helix” value (Compound 26) was “both groove binding peptides accelerated the cleavage reaction, leading to almost complete cleavage of the P′ helix” and the “FXIa cleavage of the P′ helix” value (Pep2-8) was “both reagents largely prevented cleavage of the P′ helix by FXIa”. The “FXIa cleavage of the P′ helix” value (Pep2-8-ctrl) was “The control peptide did not inhibit cleavage and gave similar results as the buffer control” and the “FXIa cleavage of the P′ helix” value (Compound 29) was “both groove binding peptides accelerated the cleavage reaction, leading to almost complete cleavage of the P′ helix”.
